Measurements from US20200199202A1 (published 2020).

Legend:
NHP NPC1-C = NHP NPC1-C (Colobus guereza); experiment: BLI; pH 5.5
[1] = biological target: T1, soluble human NPC1 domain C protein (UniProt O15118 372-622); experiment: BLI; pH 7.5
T1 chain: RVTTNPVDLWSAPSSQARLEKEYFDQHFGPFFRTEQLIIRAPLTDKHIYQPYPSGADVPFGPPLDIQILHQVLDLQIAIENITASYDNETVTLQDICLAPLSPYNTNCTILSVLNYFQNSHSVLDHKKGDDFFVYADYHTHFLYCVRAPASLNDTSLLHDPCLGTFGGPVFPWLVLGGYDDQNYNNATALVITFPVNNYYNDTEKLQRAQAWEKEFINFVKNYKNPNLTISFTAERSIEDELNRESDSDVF

[2] = biological target: T1, soluble human NPC1 domain C protein; experiment: BLI; pH 7.5
[3] = biological target: T1, soluble human NPC1 domain C protein; experiment: BLI; pH 5.5

B1: 548 (antibody, V domains shown)
VH: EVQLQQSGAELVKPGASVKLSCTASGFNIKDTYMHWVKQRPEEGLEWIGRIDPADGNTEYVPKFQGKATITADTFSNTVYLQLSGLTSEDTAVYYCSRGYYWGQGTTLTVSS
VL: DIQMTQSPASLSASVGETVTITCRASENIYSYLAWYQQKQGKSPQLLVYNAKTLAEGVPSRFSGSGSGTQFSLKINSLQPEDFGIYYCQHHYGSPWAFGGGTKLEIK
Kd (NHP NPC1-C): < 1 pM

B2: mAb 548 (anti-human NPC1 domain C monoclonal antibody) (antibody, V domains shown)
VH: EVQLQQSGAELVKPGASVKLSCTASGFNIKDTYMHWVKQRPEEGLEWIGRIDPADGNTEYVPKFQGKATITADTFSNTVYLQLSGLTSEDTAVYYCSRGYYWGQGTTLTVSS
VL: DIQMTQSPASLSASVGETVTITCRASENIYSYLAWYQQKQGKSPQLLVYNAKTLAEGVPSRFSGSGSGTQFSLKINSLQPEDFGIYYCQHHYGSPWAFGGGTKLEIK
Kd [1]: < 1 pM
Kd [2]: < 1 pM
Kd [3]: < 1 pM
